Measured values from the DeepSol protein solubility set.

experiment: soluble on expression in E. coli; label from the status in PepcDB or PDB records

| Sequence | soluble on expression in E. coli |
| --- | --- |
| MGYASKLALKICLASLCLFSALGAEHLEQKRNYIYKGEEAYNNKEYERAASFYKSAIKNGEPLAYVLLGIMYENGRGVPKDEKKAAEYFQKAVDNDIPRGYNNLGVMYKEGRGVPKDEKKAVEYFRIATEKGYTNAYINLGIMYMEGRGVPSNYVKATECFRKAMHKGNVEAYILLGDIYYSGNDQLGIEPDKDKAIVYYKMAADMSSSRAYEGLAESYQYGLGVEKDKKKAEEYMQKACDFDIDKNCKKKNTSSRLEHHHHHH | soluble |
| MHAGEAVQQLKKAFETVASFDFRDALSKASTPVTVVATNGPFGLAGLTCSAVCSVCDRPPTVLLCINRKSYAAGIIKSNGVLSVNWLAAGQAVISQTFAGVGSVPMEERFADKGWQTIATGAPYRMDAAVSFDCTIANIVDVGSHSVIFAEVVARNHAEECTPLIYHRRQYATTRSLAEHHHHHH | soluble |
| MHESIQMIIDRIDHLVLTVSDISTTIRFYEEVLGFSAVTFKQNRKALIFGAQKINLHQQEMEFEPKASRPTPGSADLCFITSTPINDVVSEILQAGISIVEGPVERTGATGEIMSIYIRDPDGNLIEISQYVLEHHHHHH | not soluble |
| MHEWALADAIVRTVLDYAQREGASRVKAVRVVLGELQDVAEDIVKFAMEQLFAGTIAEGAEIEFVEEEAVFKCRNCNYEWKLKEVKDKFDERIKEDIHFIPEVVHAFLACPKCGSHDFEVVKGRGVYVAGIKIEKEGGS | soluble |
| MHGEETPRTDLTLFSEKMQELKSRIASVIVGQERTVDLVLTAILANGHVLIEGVPGVAKTLLARLTARLIDADFSRVQFTPDLMPSDVLGTTVFNMKTNEFDFHRGPVFANIILVDEINRAPAKTQSALFEVMEERQASIDGTTYRMGELYTILATQNPVEQEGTYKLPEAQLDRFLMKITMDYPSLDEEINILERHHTNAALVKLEEIQPVITREELLSLRRLTEKVFVDRTLLQYIALIAQQTRTSKAVYLGASPRASVAMLQASKAYALLQGRDFVTPEDIKFVAPYVLQHRLILTAEAEMEGYSPVKVTQRLIDKVEVPKLEHHHHHH | soluble |
| MHHHHHHAMDTYKLFIVIGDRVVVVTTEAVDAATAEKVFKQYANDNGVDGEWTYDDAAKTFTVTE | soluble |
| MHHHHHHGKPIPNPLLGLDSTENLYFQGIDPFTMNNRNHDVLSRMISEKAALHGLLNCLIKEFAIPEGYLRYEWPDEMKGIPPGAYFDGADWKGIPMMIGLPDQLQLFVMVDRRDTFGSQHYLSDVYLRQAQGDWQCPDFEPLVARLLAACEHIAGRKNPELYEQILQSQRLVSAIVSHNGRQRADAPLQHYLQSEQGLWFGHPSHPAPKARLWPAHLGQEQWAPEFQARAALHQFEVPVDGLHIGANGLTPQQVLDGFADQQPASPGHAIICMHPVQAQLFMQDARVQQLLRDNVIRDLGQSGRVASPTASIRTWFIDDHDYFIKGSLNVRITNCVRKNAWYELESTVLIDRLFRQLLDQHADTLGGLVAAAEPGVVSWSPAAAGELDSHWFREQTGGILRENFCRRTGAERSIMAGTLFARGVDLQPMIQTFLRTHYGEALDDNALLYWFDDYQTRLLRPVLSLFFNHGVVMEPHLQNSVLVHQQGRPQQVLLRDFEGVKLTDDLGIRYIDDDIHPRVRQSLLYSREQGWNRIMYCLFINHLSETILALSQGRPQLAPLMWRRVQQQLRAIQGELKQPSPELDALIAGHPVACKTNLKVRLAAEADRQASYVRLPSPWGHAVQHGSEVQHDERRHGDVRHEEARHGEVQHG | soluble |
| MHHHHHHGMASMTARPLSELVERGWAAALEPVADQVAHMGQFLRAEIAAGRRYLPAGSNVLRAFTFPFDNVRVLIVGQDPYPTPGHAVGLSFSVAPDVRPWPRSLANIFDEYTADLGYPLPSNGDLTPWAQRGVLLLNRVLTVRPSNPASHRGKGWEAVTECAIRALAARAAPLVAILWGRDASTLKPMLAAGNCVAIESPHPSPLSASRGFFGSRPFSRANELLVGMGAEPIDWRLP | soluble |
| MHHHHHHLTKVFGSRNDRTLRRMRKVVNIINAMEPEMEKLSDEELKGKTAEFRARLEKGEVLENLIPEAFAVVREASKRVFGMRHFDVQLLGGMVLNERCIAEMRTGEGKTLTATLPAYLNALTGKGVHVVTVNDYLAQRDAENNRPLFEFLGLTVGINLPGMPAPAKREAYAADITYGTNNEYGFDYLRDNMAFSPEERVQRKLHYALVDEVDSILIDEARTPLIISGANQTLASITFQNYFRLYEKLAGMTGTADTEAFEFSSIYKLDTVVVPTNRPMIRKDLPDLVYMTEAEKIQAIIEDIKERTAKGQPVLVGTISIEKSELVSNELTKAGIKHNVLNAKFHANEAAIVAQAGYPAAVTIATNMAGRGTDIVLGGSWQAEVAALENPTAEQIEKIKADWQVRHDAVLEAGGLHIIGTERHESRRIDNQLRGRSGRQGDAGSSRFYLSMEDALMRIFASDRVSGMMRK | soluble |
| MHHHHHHRMKQLEDKVEELLSKNYHLENEVARLRSPPLLVGVVSDILEDGRVVVKSSTGPKFVVNTSQYINEEELKPGARVALNQQTLAIVNVLPTSKDPMVYGFEVEE | soluble |
| MHHHHHHSSGRENLYFQGSSESVRVVVRCRPMNGKEKAASYDKVVDVDVKLGQVSVKNPKGTAHEMPKTFTFDAVYDWNAKQFELYDETFRPLVDSVLQGFNGTIFAYGQTGTGKTYTMEGIRGDPEKRGVIPNSFDHIFTHISRSQNQQYLVRASYLEIYQEEIRDLLSKDQTKRLELKERPDTGVYVKDLSSFVTKSVKEIEHVMNVGNQNRSVGATNMNEHSSRSHAIFVITIECSEVGLDGENHIRVGKLNLVDLAGSERQAKTGAQGERLKEATKINLSLSALGNVISALVDGKSTHIPYRDSKLTRLLQDSLGGNAKTVMVANVGPASYNVEETLTTLRYANRAKNIKNKPRVNEDPKDALLREFQ | soluble |
| MHHHHHHSSGVDLGTENLYFQSMAARVLIIGSGGREHTLAWKLAQSHHVKQVLVAPGNAGTACSEKISNTAISISDHTALAQFCKEKKIEFVVVGPEAPLAAGIVGNLRSAGVQCFGPTAEAAQLESSKRFAKEFMDRHGIPTAQWKAFTKPEEACSFILSADFPALVVKASGLAAGKGVIVAKSKEEACKAVQEIMQEKAFGAAGETIVIEELLDGEEVSCLCFTDGKTVAPMPPAQDHKRLLEGDGGPNTGGMGAYCPAPQVSNDLLLKIKDTVLQRTVDGMQQEGTPYTGILYAGIMLTKNGPKVLEFNCRFGDPECQVILPLLKSDLYEVIQSTLDGLLCTSLPVWLENHTALTVVMASKGYPGDYTKGVEITGFPEAQALGLEVFHAGTALKNGKVVTHGGRVLAVTAIRENLISALEEAKKGLAAIKFEGAIYRKDIGFRAIAFLQ | soluble |
| MHHHHHHSSGVDLGTENLYFQSMADSEALPSLAGDPVAVEALLRAVFGVVVDEAIQKGTSVSQKVCEWKEPEELKQLLDLELRSQGESQKQILERCRAVIRYSVKTGHPRFFNQLFSGLDPHALAGRIITESLNTSQYTYEIAPVFVLMEEEVLRKLRALVGWSSGDGIFCPGGSISNMYAVNLARYQRYPDCKQRGLRTLPPLALFTSKECHYSIQKGAAFLGLGTDSVRVVKADERGKMVPEDLERQIGMAEAEGAVPFLVSATSGTTVLGAFDPLEAIADVCQRHGLWLHVDAAWGGSVLLSQTHRHLLDGIQRADSVAWNPHKLLAAGLQCSALLLQDTSNLLKRCHGSQASYLFQQDKFYDVALDTGDKVVQCGRRVDCLKLWLMWKAQGDQGLERRIDQAFVLARYLVEEMKKREGFELVMEPEFVNVCFWFVPPSLRGKQESPDYHERLSKVAPVLKERMVKEGSMMIGYQPHGTRGNFFRVVVANSALTCADMDFLLNELERLGQDL | soluble |
| MHHHHHHSSGVDLGTENLYFQSMDVGIVALEIYFPSQYVDQAELEKYDGVDAGKYTIGLGQAKMGFCTDREDINSLCMTVVQNLMERNNLSYDCIGRLEVGTETIIDKSKSVKTNLMQLFEESGNTDIEGIDTTNACYGGTAAVFNAVNWIESSSWDGRYALVVAGDIAVYATGNARPTGGVGAVALLIGPNAPLIFERGLRGTHMQHAYDFYKPDMLSEYPIVDGKLSIQCYLSALDRCYSVYCKKIHAQWQKEGNDKDFTLNDFGFMIFHSPYCKLVQKSLARMLLNDFLNDQNRDKNSIYSGLEAFGDVKLEDTYFDRDVEKAFMKASSELFSQKTKASLLVSNQNGNMYTSSVYGSLASVLAQYSPQQLAGKRIGVFSYGSGLAATLYSLKVTQDATPGSALDKITASLCDLKSRLDSRTGVAPDVFAENMKLREDTHHLVNYIPQGSIDSLFEGTWYLVRVDEKHRRTYARRP | soluble |
| MHHHHHHSSGVDLGTENLYFQSMEKTELIQKAKLAEQAERYDDMATCMKAVTEQGAELSNEERNLLSVAYKNVVGGRRSAWRVISSIEQKTDTSDKKLQLIKDYREKVESELRSICTTVLELLDKYLIANATNPESKVFYLKMKGDYFRYLAEVACGDDRKQTIDNSQGAYQEAFDISKKEMQPTHPIRLGLALNFSVFYYEILNNPELACTLAKTAFDEAIAELDTLNEDSYKDSTLIMQLLRDNLTLWTSDSAG | soluble |
| MHHHHHHSSGVDLGTENLYFQSMGNKYIQQTKPLTLERTINLYPLTNYTFGTKEPLYEKDSSVAARFQRMREEFDKIGMRRTVEGVLIVHEHRLPHVLLLQLGTTFFKLPGGELNPGEDEVEGLKRLMTEILGRQDGVLQDWVIDDCIGNWWRPNFEPPQYPYIPAHITKPKEHKKLFLVQLQEKALFAVPKNYKLVAAPLFELYDNAPGYGPIISSLPQLLSRFNFIYN | soluble |
| MHHHHHHSSGVDLGTENLYFQSMWSVRPSDMAKKTFNPIRAIVDNMKVKPNPNKTMISLSIGDPTVFGNLPTDPEVTQAMKDALDSGKYNGYAPSIGFLSSREEIASYYHCPEAPLEAKDVILTSGCSQAIDLCLAVLANPGQNILVPRPGFSLYKTLAESMGIEVKLYNLLPEKSWEIDLKQLEYLIDEKTACLIVNNPSNPCGSVFSKRHLQKILAVAARQCVPILADEIYGDMVFSDCKYEPLATLSTDVPILSCGGLAKRWLVPGWRLGWILIHDRRDIFGNEIRDGLVKLSQRILGPCTIVQGALKSILCRTPGEFYHNTLSFLKSNADLCYGALAAIPGLRPVRPSGAMYLMVGIEMEHFPEFENDVEFTERLVAEQSVHCLPATCFEYPNFIRVVITVPEVMMLEACSRIQEFCEQHYHC | soluble |
| MHIDLRQLRHFIALHEHRSFVAAALAVNLSQSAFSRSIQALEHSAGCRLVDRAAKDLRPTKQGLIVLEHARRLVSGAHNLANEIALFNGLEAGELRFGAGPAPATWLVPRAVGRFNVRYPKARVSFQVEHWQALNRRLQAEEFEFFVADTRHFEADPQYRTSRLRPRRWHFCCREGHPLAARESVSAEELLSFPLATNISPPNIRKVLVDLSGRPDFRPAIECENGHSLLGVVLASDAIGISSGLGDLAPPGQGGLRPLRVRELPDDLDELHTRYGIVSRAGYSLSPLAEAMIDELKRVDDAT | not soluble |
| MHILVVGVDYKSAPIEIREKVSFQPNELAEAMVQLKEEKSILENIIVSTCNRTEIYAVVDQLHTGRYYIKKFLADWFQLSKEELSPFLTFYESDAAVEHLFRVACGLDSMVIGETQILGQVRDSFKTAQQEKTIGTIFNELFKQAVTVGKRTHAETDIGSNAVSVSYAAVELAKKIFGNLSSKHILILGAGKMGELAAENLHGQGIGKVTVINRTYLKAKELADRFSGEARSLNQLESALAEADILISSTGASEFVVSKEMMENANKLRKGRPLFMVDIAVPRDLDPALNDLEGVFLYDIDDLEGIVEANMKERRETAEKVELLIEETIVEFKQWMNTLGVVPVISALREKALAIQSETMDSIERKLPHLSTREKKLLNKHTKSIINQMLRDPILKVKELAADADSEEKLALFMQIFDIEEAAGRQMMKTVESSQKVHSFKKAESKAGFSPLVSE | not soluble |
| MHKINKWSVIYNINSTVTRALRDLMQGILQKI | soluble |
